Results on 17 substances are retold here after FireProtDB.

[1] abbreviates: Escherichia coli, pH 7, Thermal, CD, phosphate 50 mM, reversible: yes.
The mark [2] stands for this setting: Homo sapiens, pH 7.6, Thermal, CD, Sodium phosphate 20 mM, NaCl 0.1 M, reversible: no, structure 1OWA.
Where [3] appears, read: Homo sapiens, pH 5, 25 °C, Urea, Fluorescence, Sodium acetate 50 mM, reversible: yes, structure 1TEN.
Setting [4] is: Homo sapiens, pH 7.3, 25 °C, GdnHCl, Fluorescence, Na2HPO4/NaH2PO4 20 mM, structure 1TIT.
The mark [5] stands for this setting: Homo sapiens, pH 7.4, 25 °C, GdnHCl, CD, PBS, structure 1TIT.
Setting [6] is: Mus musculus, pH 6.88, 5 °C, Pressure, NMR, Tris 20 mM, reversible: yes, structure 1MBG.
Where [7] appears, read: Salmo salar, pH 7.1, Thermal, CD, HEPES 10 mM, NaCl MgCl2 30 mM 3mM.

Values joined by “and” are separate entries in the source; they are usually repeats but may differ in a detail not shown here. Equal entries are not always repeated.

Sequence of Tropomyosin alpha-1 chain G24A|G27A, Q91472 G24A G27A (Q91472 entry or part of it G24A|G27A | G24A G27A): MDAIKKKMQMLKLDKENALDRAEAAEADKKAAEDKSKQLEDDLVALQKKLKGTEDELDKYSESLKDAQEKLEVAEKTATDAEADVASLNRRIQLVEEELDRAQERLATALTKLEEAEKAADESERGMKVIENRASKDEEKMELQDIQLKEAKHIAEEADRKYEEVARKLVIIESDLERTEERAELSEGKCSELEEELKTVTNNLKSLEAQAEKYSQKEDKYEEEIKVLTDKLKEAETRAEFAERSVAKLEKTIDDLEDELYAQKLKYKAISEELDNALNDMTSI
Sequence of Transcriptional activator Myb V103L, P06876 (P06876 whole entry V103L): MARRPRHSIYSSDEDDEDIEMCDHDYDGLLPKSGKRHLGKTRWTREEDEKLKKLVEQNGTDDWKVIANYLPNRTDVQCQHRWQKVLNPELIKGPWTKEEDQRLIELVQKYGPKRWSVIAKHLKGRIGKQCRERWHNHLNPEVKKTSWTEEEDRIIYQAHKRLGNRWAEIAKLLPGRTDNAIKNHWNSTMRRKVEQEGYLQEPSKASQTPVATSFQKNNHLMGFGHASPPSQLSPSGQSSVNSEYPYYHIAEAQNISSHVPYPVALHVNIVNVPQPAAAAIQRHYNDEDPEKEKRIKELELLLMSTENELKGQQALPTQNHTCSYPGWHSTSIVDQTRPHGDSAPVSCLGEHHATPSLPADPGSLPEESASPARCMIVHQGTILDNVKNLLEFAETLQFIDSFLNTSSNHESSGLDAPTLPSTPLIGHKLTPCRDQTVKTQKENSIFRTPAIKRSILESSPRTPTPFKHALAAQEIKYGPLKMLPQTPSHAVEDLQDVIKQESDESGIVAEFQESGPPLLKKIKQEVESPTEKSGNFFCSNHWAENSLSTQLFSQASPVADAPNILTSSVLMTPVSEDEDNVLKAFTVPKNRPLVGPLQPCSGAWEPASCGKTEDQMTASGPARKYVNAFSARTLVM
Sequence of Tropomyosin alpha-1 chain G27A, Q91472 (Q91472 entry or part of it G27A | G27A): as the sequence (Q91472 entry or part of it G24A|G27A | G24A G27A) above, with A24G counted along it
Sequence of Tropomyosin alpha-1 chain G24A, Q91472 (Q91472 entry or part of it G24A | G24A): as the sequence (Q91472 entry or part of it G24A|G27A | G24A G27A) above, with A27G counted along it
Sequence of Tropomyosin alpha-1 chain wild type, Q91472 (Q91472 entry or part of it): as the sequence (Q91472 entry or part of it G24A|G27A | G24A G27A) above, with A24G, A27G counted along it

With “Soluble cytochrome b562 wild type, P0ABE7”, where the note is “Escherichia coli, pH 7, 20 °C, Urea, CD, Potassium phosphate 50 mM, reversible: yes”, the unfolding free energy is 6.6 kcal/mol and 3.2 kcal/mol. In addition, under setting [1], the “heat capacity change of unfolding” value is 2.4 kcal/mol/K and 1.1 kcal/mol/K; the “unfolding enthalpy (van 't Hoff)” value was 94 kcal/mol and 53 kcal/mol.
Regarding “Spectrin alpha chain, erythrocytic 1, P02549 A2023V”, under setting [2], the Tm stood at 60.5 °C and the “change of melting temperature, mutant - wild type (higher = more stable)” value (“change of melting temperature, mutant” for short) is -2 °C.
Take Tenascin, P24821 Y869A: under setting [3], the “ddG of mutation (higher = less stable)” value is -1.88 kcal/mol.
Consider Tenascin, P24821 Y869F, for which the “ddG of mutation (higher = less stable)” value under setting [3] is -3.22 kcal/mol.
In the case of “Titin C12723S|C12739S, Q8WZ42 C12723S C12739S”, under setting [4], the “ddG of mutation (higher = less stable)” value was -3.2 kcal/mol and the denaturant m value was 2.8 kcal/mol/M.
With Titin F12749L, Q8WZ42, the “ddG of mutation (higher = less stable)” value under setting [5] was determined as 3.06 kcal/mol.
Regarding Titin I12699A, Q8WZ42, under setting [5], the “ddG of mutation (higher = less stable)” value was 2.89 kcal/mol.
Still for that read-out and setting: then Titin L12717A, Q8WZ42, with 2.67 kcal/mol; and Titin L12736A, Q8WZ42, with 5.27 kcal/mol; and Titin V12689A, Q8WZ42, with 2.37 kcal/mol.
Regarding Titin V12762A, Q8WZ42, the “ddG of mutation (higher = less stable)” value under setting [5] turned out to be 4.78 kcal/mol.
“Transcriptional activator Myb V103L, P06876”: under setting [6], the “ddG of mutation (higher = less stable)” value was -0.48 kcal/mol and the unfolding free energy was 1.75 kcal/mol.
Regarding Tropomyosin alpha-1 chain G24A, Q91472, under setting [7], the Tm was 36.9 °C and the “change of melting temperature, mutant” value was -0.1 °C.
Consider “Tropomyosin alpha-1 chain G24A|G27A, Q91472 G24A G27A”, for which, under setting [7], the Tm was 38.1 °C and the “change of melting temperature, mutant” value was 1.1 °C.
For Tropomyosin alpha-1 chain G27A, Q91472 the same measures were 37.3 °C and 0.3 °C.
Regarding “Tropomyosin alpha-1 chain wild type, Q91472”, under setting [7], the Tm worked out at 37 °C.
In the case of Twitchin, Q23551 Y4220F, the “ddG of mutation (higher = less stable)” value (Caenorhabditis elegans, pH 7, 20 °C, Urea, Fluorescence, Sodium phosphate 50 mM, reversible: yes, structure 1WIT) is -2.15 kcal/mol.
